# In patent publication US10239925B2, “Peptides and combination of peptides for use in immunotherapy against ovarian cancer and other cancers” (IMMATICS BIOTECHNOLOGIES GMBH, priority 2015, dated 2019):
# Molecular target: HLA-A*02:01 (Homo sapiens, UniProt P04439, D140Y/D185E/D98H/E176V/E277Q/G131W/G231S/I119V/I121R/I166T/I218V/L300P/L318F/N151K/N90K/P208A/P217A/Q86G/Q94H/R138H/R169H/T345S)
# Assay: MHC binding assay (UV-ligand exchange, anti-β2m ELISA, peptide exchange yield)
# Settings: binding to HLA-A*02:01
# Description: Candidate peptides for T cell based therapies according to the present invention were further tested for their MHC binding capacity (affinity). The individual peptide-MHC complexes were produced by UV-ligand exchange, where a UV-sensitive peptide is cleaved upon UV-irradiation, and exchanged with the peptide of interest as analyzed. Only peptide candidates that can effectively bind and stabilize the peptide-receptive MHC molecules prevent dissociation of the MHC complexes. To determine the yield of the exchange reaction, an ELISA was performed based on the detection of the light chain (β2m) of stabilized MHC complexes. The assay was performed as generally described in Rodenko et al. (Rodenko et al., 2006).
# 96 well MAXISorp plates (NUNC) were coated over night with 2 ug/ml streptavidin in PBS at room temperature, washed 4× and blocked for 1h at 37° C. in 2% BSA containing blocking buffer. […] Peptide-MHC monomers of the UV-exchange reaction were diluted 100 fold in blocking buffer. Samples were incubated for 1 h at 37° C., washed four times, incubated with 2 ug/ml HRP conjugated anti-β2m for 1h at 37° C., washed again and detected with TMB solution that is stopped with […]. Absorption was measured at 450 nm. Candidate peptides that show a high exchange yield (preferably higher than 50%, most preferred higher than 75%) are generally preferred for a generation and production of antibodies or fragments thereof, and/or T cell receptors or fragments thereof, as they show sufficient avidity to the MHC molecules and prevent dissociation of the MHC complexes.
row,Substance,"Peptide exchange (MHC class I binding score, peptide exchange yield)"
1,172 (VLYSYTIITV; listed as Homo sapiens) [compound 172],“++” (>20% = ++)
2,126 (VLAYFLPEA; listed as Homo sapiens) [compound 126],“++++” (>75% = ++++)
3,119 (FLYIGDIVSL; listed as Homo sapiens) [compound 119],“++++” (>75% = ++++)
4,12 (SLWPDPMEV; listed as Homo sapiens) [compound 12],“+++” (>50 = +++)
5,127 (KIGDEPPKV; listed as Homo sapiens) [compound 127],“++” (>20% = ++)
6,43 (VLSSLEINI; listed as Homo sapiens) [compound 43],“++” (>20% = ++)
7,598 (FLFPHSVLV; listed as Homo sapiens) [compound 598],“+++” (>50 = +++)
8,381 (FIDEAYVEV; listed as Homo sapiens) [compound 381],“++” (>20% = ++)
9,559 (VTVPPGPSL; listed as Homo sapiens) [compound 559],“++” (>20% = ++)
10,151 (KILQQLVTL; listed as Homo sapiens) [compound 151],“+++” (>50 = +++)
11,279 (ALWGGTQPLL; listed as Homo sapiens) [compound 279],“++” (>20% = ++)
12,137 (TLVLTLPTV; listed as Homo sapiens) [compound 137],“++++” (>75% = ++++)
13,399 (YLFEPLYHV; listed as Homo sapiens) [compound 399],“+++” (>50 = +++)
14,106 (LLYDAVHIVSV; listed as Homo sapiens) [compound 106],“+++” (>50 = +++)
15,320 (KMFEFVEPLL; listed as Homo sapiens) [compound 320],“++++” (>75% = ++++)
16,376 (AMFESSQNVLL; listed as Homo sapiens) [compound 376],“++” (>20% = ++)
17,245 (SMIDDLLGV; listed as Homo sapiens) [compound 245],“+++” (>50 = +++)
18,88 (FLLVGDLMAV; listed as Homo sapiens) [compound 88],“+++” (>50 = +++)
19,391 (YVYPQRLNFV; listed as Homo sapiens) [compound 391],“+++” (>50 = +++)

row,Substance,"Peptide exchange (MHC class I binding score, peptide exchange yield)"
1,70 (GLLDYPVGV; listed as Homo sapiens) [compound 70],“+++” (>50 = +++)
2,591 (SMAELDIKL; listed as Homo sapiens) [compound 591],“+++” (>50 = +++)
3,104 (STMEQNFLL; listed as Homo sapiens) [compound 104],“++++” (>75% = ++++)
4,444 (GLLRDEALAEV; listed as Homo sapiens) [compound 444],“+++” (>50 = +++)
5,488 (FLAEDPKVTL; listed as Homo sapiens) [compound 488],“+++” (>50 = +++)
6,504 (GLSDGNPSL; listed as Homo sapiens) [compound 504],“++” (>20% = ++)
7,96 (YIFTDNPAAV; listed as Homo sapiens) [compound 96],“+++” (>50 = +++)
8,468 (YLRSVGDGETV; listed as Homo sapiens) [compound 468],“+++” (>50 = +++)
9,588 (SLLPLSHLV; listed as Homo sapiens) [compound 588],“+++” (>50 = +++)
10,364 (LLQNEQFEL; listed as Homo sapiens) [compound 364],“+++” (>50 = +++)
11,597 (KLLEGQVIQL; listed as Homo sapiens) [compound 597],“+++” (>50 = +++)
12,351 (SLIPNLRNV; listed as Homo sapiens) [compound 351],“+++” (>50 = +++)
13,4 (GIMEHITKI; listed as Homo sapiens) [compound 4],“++++” (>75% = ++++)
14,635 (SLDSTLHAV; listed as Homo sapiens) [compound 635],“+++” (>50 = +++)
15,523 (YQIPRTFTL; listed as Homo sapiens) [compound 523],“++” (>20% = ++)
16,517 (LLMPIPEGLTL; listed as Homo sapiens) [compound 517],“+++” (>50 = +++)
17,578 (FLDPGGPMMKL; listed as Homo sapiens) [compound 578],“+++” (>50 = +++)
18,613 (RLLPPGAVVAV; listed as Homo sapiens) [compound 613],“+++” (>50 = +++)
19,267 (ALQDFLLSV; listed as Homo sapiens) [compound 267],“+++” (>50 = +++)

row,Substance,"Peptide exchange (MHC class I binding score, peptide exchange yield)"
1,584 (ALAEVAAMENV; listed as Homo sapiens) [compound 584],“+++” (>50 = +++)
2,69 (FQLDPSSGVLVTV; listed as Homo sapiens) [compound 69],“+++” (>50 = +++)
3,257 (SIFSAFLSV; listed as Homo sapiens) [compound 257],“+++” (>50 = +++)
4,431 (SLVNVVPKL; listed as Homo sapiens) [compound 431],“++” (>20% = ++)
5,248 (FLFPNQYVDV; listed as Homo sapiens) [compound 248],“+++” (>50 = +++)
6,370 (SLLQDLVSV; listed as Homo sapiens) [compound 370],“+++” (>50 = +++)
7,503 (SLNHFTHSV; listed as Homo sapiens) [compound 503],“+++” (>50 = +++)
8,214 (FLLDLDPLLL; listed as Homo sapiens) [compound 214],“+++” (>50 = +++)
9,274 (SLLFSLFEA; listed as Homo sapiens) [compound 274],“++” (>20% = ++)
10,94 (YLIDIKTIAI; listed as Homo sapiens) [compound 94],“++” (>20% = ++)
11,310 (FLVDTPLARA; listed as Homo sapiens) [compound 310],“++++” (>75% = ++++)
12,516 (AVGPASILKEV; listed as Homo sapiens) [compound 516],“++” (>20% = ++)
13,356 (KLLGKLPEL; listed as Homo sapiens) [compound 356],“+++” (>50 = +++)
14,86 (NLIGKIENV; listed as Homo sapiens) [compound 86],“+++” (>50 = +++)
15,336 (ILLTAIVQV; listed as Homo sapiens) [compound 336],“+++” (>50 = +++)
16,68 (SLMELPRGLFL; listed as Homo sapiens) [compound 68],“++++” (>75% = ++++)
17,331 (KVDTVWVNV; listed as Homo sapiens) [compound 331],“+++” (>50 = +++)
18,256 (FLPPEHTIVYI; listed as Homo sapiens) [compound 256],“+++” (>50 = +++)
